The record followed here is US20190031764A1 (published 2019).

Where a chain is given by its changes, count along the chain named. In names and notes the source's numbering stands.

The target of this assay is human PD1 antigen (human, UniProt Q15116 25-167). Kind of assay: SPR. A general note: Surface plasmon resonance follows binding to a sensor surface in real time, without labels.
Sequence of human PD1 antigen (Q15116 25-167): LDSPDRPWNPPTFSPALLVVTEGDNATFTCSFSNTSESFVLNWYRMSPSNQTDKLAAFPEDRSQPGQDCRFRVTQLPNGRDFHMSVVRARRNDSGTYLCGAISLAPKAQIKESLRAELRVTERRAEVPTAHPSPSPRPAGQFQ

B1: S75D variant of PD1B244 (antibody, V domains shown)
VH: QVQLVQSGAEVKKPGSSVKVSCKASGGTFSSYAISWVRQAPGQGLEWMGGIIPIFDTANYAQKFQGRVTITADEDTSTAYMELSSLRSEDTAVYYCARPGLAAAYDTGSLDYWGQGTLVTVSS
VL: EIVLTQSPATLSLSPGERATLSCRASQSVRSYLAWYQQKPGQAPRLLIYDASNRATGIPARFSGSGSGTDFTLTISSLEPEDFAVYYCQQRNYWPLTFGQGTKVEIK
Usually Kd stands for a measure of binding affinity in units of concentration. A lower Kd goes with tighter binding. B1 displayed a Kd of 1.38 nM.

B2: S84D variant of PD1B244 (antibody, V domains shown)
VH: B1 VH with D75S, S84D
VL: B1 VL
As for B2, the Kd was 1.51 nM.

B3: S88D variant of PD1B244 (antibody, V domains shown)
VH: B1 VH with D75S, S88D
VL: B1 VL
Molecule B3 registered a Kd of 1.36 nM.
